FireProtDB (doi:10.1002/prot.340230110)

Conditions: Escherichia coli; pH 6; 25 °C; Thermal; DSC; Sodium phosphate/Sodium sulfate 10 mM/10 mM/; reversible: yes; whole UniProt chain shown

B1: Regulatory protein rop wild type, P03051 (protein)
chain: MTKQEKTALNMARFIRSQTLTLLEKLNELDADEQADICESLHDHADELYRSCLARFGDDGENL
Question: Which “heat capacity change of unfolding” value does the source give for B1 here?
Answer: Its value is 2.46 kcal/mol/K.

Question: What about the unfolding free energy of the same protein?
Answer: Its unfolding free energy is 17.1 kcal/mol.
